This experiment concerns the target FITC-labeled NB.1. Kind of experiment: fluorescence polarisation; direct fluorescence anisotropy: 1:1 dilution series of 14-3-3γ (starting at 100 μM) into FITC-labeled peptide (10 nM or 50 nM); 10 mM HEPES pH 7.4, 150 mM NaCl, 0.1% Tween 20, 0.1% BSA; ambient temperature.

Results on 1 molecule are retold here after paper PMC7311396, “Ultra-large chemical libraries for the discovery of high-affinity peptide binders” (Nature Communications, 2020).

B1: 14-3-3γ (natural protein)
chain: MVDREQLVQKARLAEQAERYDDMAAAMKNVTELNEPLSNEERNLLSVAYKNVVGARRSSWRVISSIEQKTSADGNEKKIEMVRAYREKIEKELEAVCQDVLSLLDNYLIKNCSETQYESKVFYLKMKGDYYRYLAEVATGEKRATVVESSEKAYSEAHEISKEHMQPTHPIRLGLALNYSVFYYEIQNAPEQACHLAKTAFDDAIAELDTLNEDSYKDSTLIMQLLRDNLTLWTSDQQDDDGGEGNN
The molecule B1 had a fold weaker binding than the 14-3-3γ-binding peptides of 10000 fold.
